Results: patent publication US20200062856A1 (XDCEXPLORER SHANGHAI, published 2020)
Blank lines part the entries; values can stand above or below the molecule they belong to.

What was measured:
[1] = molecular target: mouse TPBG protein, full-length, on the cell surface (mouse) (UniProt Q9Z0L0); assay: FACS, CHOk1-mTPBG 3A3 cells
[2] = molecular target: human TPBG protein, full-length, on the cell surface (human) (UniProt Q13641); assay: FACS, CHOk1-hTPBG 3A2F1 cells
[3] = molecular target: cynomolgus TPBG protein, full-length, on the cell surface (cynomolgus) (UniProt Q4R8Y9); assay: FACS, CHOk1-cTPBG 3F13G4 cells
[4] = molecular target: human TPBG protein, full-length, on the cell surface (human) (UniProt Q13641); assay: FACS, HEK293 clone 293F-hTPBG 4A8
[5] = molecular target: human TPBG protein, full-length, on the cell surface (human) (UniProt Q13641); assay: FACS, HEK293 clone 293F-hTPBG 4A9
[6] = molecular target: human TPBG protein, full-length, on the cell surface (human) (UniProt Q13641); assay: FACS, HEK293 clone 293F-hTPBG 4B9
[7] = molecular target: human TPBG protein, full-length, on the cell surface (human) (UniProt Q13641); assay: FACS, HEK293 clone 293F-hTPBG 4C3
[8] = molecular target: human TPBG protein, full-length, on the cell surface (human) (UniProt Q13641); assay: FACS, HEK293 clone 293F-hTPBG 4C5
[9] = molecular target: human TPBG protein, full-length, on the cell surface (human) (UniProt Q13641); assay: FACS, HEK293 clone 293F-hTPBG 4E1
[10] = molecular target: human TPBG protein, full-length, on the cell surface (human) (UniProt Q13641); assay: FACS, HEK293 clone 293F-hTPBG 4F9
[11] = molecular target: human TPBG protein, full-length, on the cell surface (human) (UniProt Q13641); assay: FACS, HEK293 clone 293F-hTPBG 4G1
[12] = molecular target: human TPBG protein, full-length, on the cell surface (human) (UniProt Q13641); assay: FACS, HEK293 clone 293F-hTPBG 4G6
[13] = molecular target: human TPBG protein, full-length, on the cell surface (human) (UniProt Q13641); assay: FACS, HEK293 clone 293F-hTPBG 5A9
[14] = molecular target: human TPBG protein, full-length, on the cell surface (human) (UniProt Q13641); assay: FACS, HEK293 clone 293F-hTPBG 5D4
[15] = molecular target: human TPBG protein, full-length, on the cell surface (human) (UniProt Q13641); assay: FACS, HEK293 clone 293F-hTPBG 5E5
[16] = molecular target: human TPBG protein, full-length, on the cell surface (human) (UniProt Q13641); assay: FACS, HEK293 clone 293F-hTPBG 5E6
[17] = molecular target: human TPBG protein, full-length, on the cell surface (human) (UniProt Q13641); assay: FACS, HEK293 clone 293F-hTPBG 5G8
[18] = molecular target: human TPBG protein, full-length, on the cell surface (human) (UniProt Q13641); assay: FACS, HEK293 clone 293F-hTPBG 5H6
[19] = molecular target: human TPBG protein, full-length, on the cell surface (human) (UniProt Q13641); assay: FACS, HEK293 clone 293F-hTPBG 4H12
[20] = molecular target: human TPBG protein, full-length, on the cell surface (human) (UniProt Q13641); assay: FACS, HEK293 clone 293F-hTPBG 5A11
[21] = molecular target: human TPBG protein, full-length, on the cell surface (human) (UniProt Q13641); assay: FACS, HEK293 clone 293F-hTPBG 5C12
[22] = molecular target: human TPBG protein, full-length, on the cell surface (human) (UniProt Q13641); assay: FACS, HEK293 clone 293F-hTPBG 5G11
[23] = molecular target: human TPBG protein, full-length, on the cell surface (human) (UniProt Q13641); assay: FACS, HEK293 clone 293F-hTPBG 4E1 (NO 8)
[24] = molecular target: T1, cynomolgus TPBG protein, full-length, on the cell surface (cynomolgus, UniProt Q4R8Y9 35-420); assay: FACS on CHOk1-cTPBG cells
T1 construct: whole, on cells; also called cTPBG; CHOk1-cTPBG
T1 sequence (looked up): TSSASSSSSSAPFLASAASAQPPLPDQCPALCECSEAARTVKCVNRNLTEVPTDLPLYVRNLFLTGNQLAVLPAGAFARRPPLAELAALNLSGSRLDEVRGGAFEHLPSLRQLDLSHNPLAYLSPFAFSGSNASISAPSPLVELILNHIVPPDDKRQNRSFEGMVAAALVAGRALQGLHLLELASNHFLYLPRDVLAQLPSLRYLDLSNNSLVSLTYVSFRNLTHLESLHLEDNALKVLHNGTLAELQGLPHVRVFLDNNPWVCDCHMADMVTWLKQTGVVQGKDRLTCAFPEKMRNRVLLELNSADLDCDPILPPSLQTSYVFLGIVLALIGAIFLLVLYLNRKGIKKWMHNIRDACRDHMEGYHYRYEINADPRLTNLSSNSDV
Source text: (§1) The stable cell lines CHOk1-hTPBG, CHOk1-cTPBG, CHOk1-mTPBG (i.e. the CHOk1-hTPBG 3A2F1, CHOk1-cTPBG 3F13G4 and CHOk1-mTPBG 3A3 shown in Table 6) and CHO-k1 cells were expanded to a 90% of confluency in T-75 cell culture flasks, and the culture medium were removed. Cells were then rinsed twice with HBSS buffer (Hanks Balanced Salt Solution, purchased from Invitrogen) and […] with enzyme-free cell dissociation buffer (Versene solution was purchased from Life technology) and harvested. Harvested cells were rinsed with HBSS buffer twice and counted before diluting with HBSS buffer to 2×10⁶ cells/mL, and 10% goat serum blocking buffer was then added, wherein the percentage is the mass percentage. Cells were incubated on ice for 30 min, and then washed twice with HBSS buffer by centrifugation. […] The plate was washed with the FACS buffer twice by centrifugation, and 100 μL per well of fluorescence (Alexa 488) labeled secondary antibody (purchased from Invitrogen) was then added and incubated on ice for 1 h. […] The results were measured and analyzed by FACS (FACS Calibur, purchased from BD). The data was analyzed by software (CellQuest) to obtain the mean fluorescence intensity (MFI) of the cells, follow by calculating EC50 value by software (GraphPad Prism) analysis and data fitting.

[25] = molecular target: T2, human TPBG protein, full-length, on the cell surface (human, UniProt Q13641 32-420); assay: FACS on CHOk1-hTPBG cells
T2 construct: whole, on cells; Transfected HEK293 (293F-hTPBG clones) and CHO-k1 (CHOk1-hTPBG 3A2F1) cells; also used here for endogenous TPBG on the TPBG-positive tumour lines NCI-H1568, NCI-H1975 and MDA-MB-468 in the killing assays; also called hTPBG; 5T4
T2 sequence (looked up): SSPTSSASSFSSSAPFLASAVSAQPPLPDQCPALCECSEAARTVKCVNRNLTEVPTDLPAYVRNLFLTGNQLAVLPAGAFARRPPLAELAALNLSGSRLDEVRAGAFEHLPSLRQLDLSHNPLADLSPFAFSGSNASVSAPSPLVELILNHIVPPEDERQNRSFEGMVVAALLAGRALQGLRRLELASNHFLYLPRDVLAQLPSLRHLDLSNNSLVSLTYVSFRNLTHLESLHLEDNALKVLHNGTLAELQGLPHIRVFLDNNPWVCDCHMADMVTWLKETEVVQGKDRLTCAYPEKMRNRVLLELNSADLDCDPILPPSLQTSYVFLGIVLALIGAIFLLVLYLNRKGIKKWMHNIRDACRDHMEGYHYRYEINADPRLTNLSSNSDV
Source text: as §1

[26] = molecular target: T3, mouse TPBG protein, full-length, on the cell surface (mouse, UniProt Q9Z0L0 32-426); assay: FACS on CHOk1-mTPBG cells
T3 construct: whole, on cells; also called mTPBG; CHOk1-mTPBG
T3 sequence (looked up): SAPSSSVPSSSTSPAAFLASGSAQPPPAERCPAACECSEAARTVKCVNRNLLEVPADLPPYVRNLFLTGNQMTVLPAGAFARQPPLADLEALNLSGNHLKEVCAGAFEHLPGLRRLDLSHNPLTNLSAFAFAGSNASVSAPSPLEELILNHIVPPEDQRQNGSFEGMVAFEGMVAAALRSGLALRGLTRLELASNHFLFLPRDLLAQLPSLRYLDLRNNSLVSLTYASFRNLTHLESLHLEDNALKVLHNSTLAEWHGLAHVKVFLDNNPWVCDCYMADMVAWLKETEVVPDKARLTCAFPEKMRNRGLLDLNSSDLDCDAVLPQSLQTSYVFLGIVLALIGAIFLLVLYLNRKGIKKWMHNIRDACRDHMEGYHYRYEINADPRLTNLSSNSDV
Source text: as §1

- Cellular MFI [1]: 135 MFI
- Cellular MFI [2]: 798 MFI
- Cellular MFI [3]: 198 MFI
- Cellular MFI [4]: 33.4 MFI
- Cellular MFI [5]: 204 MFI
- Cellular MFI [6]: 126 MFI
- Cellular MFI [7]: 27.2 MFI
- Cellular MFI [8]: 172 MFI
- Cellular MFI [9]: 145 MFI
- Cellular MFI [10]: 47.7 MFI
- Cellular MFI [11]: 131 MFI
- Cellular MFI [12]: 31.8 MFI
- Cellular MFI [13]: 53.2 MFI
- Cellular MFI [14]: 70.6 MFI
- Cellular MFI [15]: 280 MFI
- Cellular MFI [16]: 13.2 MFI
- Cellular MFI [17]: 168 MFI
- Cellular MFI [18]: 36.4 MFI
- Cellular MFI [19]: 9.5 MFI
- Cellular MFI [20]: 166 MFI
- Cellular MFI [21]: 75.4 MFI
- Cellular MFI [22]: 11.3 MFI
- Cellular MFI [23]: 91.8 MFI
Molecule: commercially available TPBG antibody (purchased from Sigma, Lot NO: SAB1404485)

- EC50 [24]: 590 pM
- EC50 [25]: 650 pM
- binding result [26]: no binding
B1: mouse anti-TPBG monoclonal antibody 12B12C7C3 (antibody, V domains shown)
VH: DVQLVESGGGLVQPGGSRKLSCAASGFTFSNFGMHWVRQAPEKGLEWVAYISSGSTSFYYADTVKGRFTISRDNPKNTLFLQMTSLRSEDTAMYYCSRTNSLLRGFFDAWGAGTTVTVSS
VL: DIVLTQSPASLAVSLGQRATISCRASQSVSSSSYTYLHWYQQKPGQPPKLLIKSASNLESGVPARFSGTGSGTDFTLNIHPVEEEDTATYYCQHSWEIPLTFGAGTKLELK
notes: Mouse antibody purified from hybridoma supernatant; also called 12B12C7C3 (12B12 for short)

- EC50 [24]: 250 pM
- EC50 [25]: 630 pM
- binding result [26]: no binding
B2: mouse anti-TPBG monoclonal antibody 28D4E6A9 (antibody, V domains shown)
VH: DVQLVESGGGLVRPGGSLKLSCAASGFTFSNYVMSWARQSPEKRLEWVAEISTGGSHTYYSDTVTGRFTISRDNAKKALYLEMSSLRSEDTAIYYCIMFYYGSSYSMDYWGQGTSVTVSS
VL: DIQMTQSTSSLSASLGDRITISCRASQDIRNYLNWYQQKPDGTVKLLIYHTSRLHSGVPSRFSGSGSGTDYSLTISNLEQEDIATYFCQQGDTLPLTFGAGTRLELK
notes: Mouse antibody purified from hybridoma supernatant; also called 28D4E6A9 (28D4 for short)
